In the assay the target is insulin receptor, endogenous in 3T3-L1 preadipocytes (UniProt P15208). Kind of assay: cell-based or functional assay.
Chain of UniProt P15208 (P15208 28-1372 limits assumed): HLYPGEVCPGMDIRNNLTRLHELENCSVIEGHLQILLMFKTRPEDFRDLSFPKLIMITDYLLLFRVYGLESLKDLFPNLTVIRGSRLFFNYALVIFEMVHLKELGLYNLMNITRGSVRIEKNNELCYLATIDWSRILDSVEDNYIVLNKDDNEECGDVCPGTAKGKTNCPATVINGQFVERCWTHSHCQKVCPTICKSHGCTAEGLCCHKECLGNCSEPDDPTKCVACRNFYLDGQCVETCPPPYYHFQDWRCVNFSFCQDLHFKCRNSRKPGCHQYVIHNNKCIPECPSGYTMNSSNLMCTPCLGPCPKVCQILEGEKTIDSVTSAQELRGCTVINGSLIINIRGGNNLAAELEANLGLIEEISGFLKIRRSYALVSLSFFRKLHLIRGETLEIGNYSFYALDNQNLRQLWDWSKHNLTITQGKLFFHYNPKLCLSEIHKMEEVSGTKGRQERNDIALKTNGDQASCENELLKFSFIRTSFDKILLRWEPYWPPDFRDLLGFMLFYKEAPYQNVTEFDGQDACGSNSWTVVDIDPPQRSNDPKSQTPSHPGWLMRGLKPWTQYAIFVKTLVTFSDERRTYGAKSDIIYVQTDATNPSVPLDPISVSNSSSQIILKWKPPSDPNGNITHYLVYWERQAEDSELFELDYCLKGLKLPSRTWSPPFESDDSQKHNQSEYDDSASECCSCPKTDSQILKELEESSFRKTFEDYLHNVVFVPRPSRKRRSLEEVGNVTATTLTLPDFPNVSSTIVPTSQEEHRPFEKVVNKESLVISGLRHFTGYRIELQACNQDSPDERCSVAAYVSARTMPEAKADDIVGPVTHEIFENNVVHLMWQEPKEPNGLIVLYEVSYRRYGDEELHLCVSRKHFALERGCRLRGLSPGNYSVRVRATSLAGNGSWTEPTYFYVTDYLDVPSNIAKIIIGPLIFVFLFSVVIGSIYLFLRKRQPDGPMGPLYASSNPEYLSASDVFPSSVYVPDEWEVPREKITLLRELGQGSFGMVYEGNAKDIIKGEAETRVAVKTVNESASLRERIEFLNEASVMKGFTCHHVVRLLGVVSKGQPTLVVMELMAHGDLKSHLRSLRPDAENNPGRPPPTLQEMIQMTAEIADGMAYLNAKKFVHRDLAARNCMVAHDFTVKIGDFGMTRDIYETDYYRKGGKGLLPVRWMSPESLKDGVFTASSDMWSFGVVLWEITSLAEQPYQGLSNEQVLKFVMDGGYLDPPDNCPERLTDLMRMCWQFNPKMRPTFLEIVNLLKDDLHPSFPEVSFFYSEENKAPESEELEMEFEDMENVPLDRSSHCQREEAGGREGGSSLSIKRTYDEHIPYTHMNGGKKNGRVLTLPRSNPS

Regarding “Gpc4Δ529SAG531::HHHHHH (ΔGpc4), soluble mutant lacking the GPI anchor attachment site, with N-terminal 6xHis tag (from UniProt P51655 19-528; P51655 532-557)”, the insulin-stimulated Akt-Ser473 peak phosphorylation, enhancement by overexpression stood at 94% and the insulin-stimulated ERK peak phosphorylation, enhancement by overexpression is 67%.
Regarding “native Gpc4 with HA-tag inserted after the signal peptide, stably overexpressed in 3T3-L1 cells (from UniProt P51655 19-529)”, the insulin-stimulated Akt-Ser473 peak phosphorylation, enhancement by overexpression was 140% and the insulin-stimulated ERK peak phosphorylation, enhancement by overexpression was found to be 100%.

Source of the values: patent publication US20140364363A1.
